Experimental data as given in US20200131277A1.

Molecular target: pY peptide GGGpYGGG
Assay: BLI (Octet RED384), biotinylated peptide on streptavidin sensor, Fab in solution, 1:1 fit

Kd [µM]	Substance
0.277	4G10^4D5 (Fab)
1.83	PY20^4D5 (Fab)
